The record followed here is PMC11444770, “Moesin contributes to heat shock gene response through direct binding to the Med15 subunit of the Mediator complex in the nucleus” (Open Biology, 2024).

Sequences and labels used below:
B3: GST-Med17 (natural protein, Drosophila melanogaster, UniProt Q9VEC1 1-642, looked up)
chain: MSNSVNISVETTCENQIREIGYDGTELYQPPPTLSESLAKCAARIDFSKTSLDDLKKEEKSAAAAADEDKDATQFQESLWPWDAVRNKLKDALTEICVLSDVISIAKDKRYLVLDPLLEEADDTKPIVQVYSRKKAISQAAQVLLSGAERLRNAHSEQRNRNVSDFHIELLRLRQNWRLKKVSNAIIGDLSYRTAGSKFGMSGTFEVTKAEETGDEDTASSSNSSSSVSGNNGMQLKASSALRVIVPAELQGVAYIKVITQKDQEDLCTAQLNLMGHGPNITAQVGVWQKTLEFAQNVLFCKELFAQLAREAIQLQAPIPHVVIGNQIRATLLPNIQLIISLCHSTTFDSSQPAPINDHDHVLEHSLHQLLREVHYKNSHHPFPHPASAPLGPTKKRMLAGPMAADRETLLDMTKSQTILEQIIAQAQHIFMRKRTQYVLDTLARDVKDPQIVSHWNAMNSPTMSCVKINIVTHGYDAIGRTSLVIHVKERSLKCICRDGRVMRLSYEPQELRDLILCQINSHQISCLISLARCMSWTVLSNSNHLGIGKVEPLGNASSCLLASPNSDRMIAVQIRCDPQIDVKVYIARSPRQDFFPSPLVPEKLWENLGGTFKEVRFDKIEGKSFLNKMEFLMASLTSNTA
notes: Med17, Drosophila Mediator subunit; CDS amplified with the primers Med17 pGex6P-1 Fw/Rev (start to stop codon) and cloned into pGex6P-1; source: E. coli SixPack, purified on Glutathione Sepharose 4B, kept on the beads; not shown: GST, N-terminal, kept
B4: 6xHis-Hsf (natural protein, Drosophila melanogaster, UniProt P22813 1-691, looked up)
chain: MSRSRSSAKAVQFKHESEEEEEDEEEQLPSRRMHSYGDAAAIGSGVPAFLAKLWRLVDDADTNRLICWTKDGQSFVIQNQAQFAKELLPLNYKHNNMASFIRQLNMYGFHKITSIDNGGLRFDRDEIEFSHPFFKRNSPFLLDQIKRKISNNKNGDDKGVLKPEAMSKILTDVKVMRGRQDNLDSRFSAMKQENEVLWREIASLRQKHAKQQQIVNKLIQFLITIVQPSRNMSGVKRHVQLMINNTPEIDRARTTSETESESGGGPVIHELREELLDEVMNPSPAGYTAASHYDQESVSPPAVERPRSNMSISSHNVDYSNQSVEDLLLQGNGTAGGNILVGGAASPMAQSVSQSPAQHDVYTVTEAPDSHVQEVPNSPPYYEEQNVLTTPMVREQEQQKRQQLKENNKLRRQAGDVILDAGDILVDSSSPKAQRTSIQHSTQPDVMVQPMIIKSEPENSSGLMDLMTPANDLYSVNFISEDMPTDIFEDALLPDGVEEAAKLDQQQKFGQSTVSSGKFASNFDVPTNSTLLDANQASTSKAAAKAQASEEEGMAVAKYSGAENGNNRDTNNSQLLRMASVDELHGHLESMQDELETLKDLLRGDGVAIDQNMLMGLFNDSDLMDNYGLSFPNDSISSEKKAPSGSELISYQPMYDLSDILDTDDGNNDQEASRRQMQTQSSVLNTPRHEL
notes: heat shock factor (Hsf), the Drosophila Hsf1 homologue; The methods say C-terminal 6xHis tagging in pDEST17, while the label 6xHis-Hsf puts the tag first; as far as I recall pDEST17 adds an N-terminal His tag; also called heat shock factor; source: E. coli, purified (HisPur Cobalt Resin or Ni-NTA beads); not shown: 6xHis, C-terminal, kept

What all share (assay): pull-down; GST-6xHis pull-down: GST-tagged baits immobilised on glutathione beads, purified 6xHis-tagged preys; 50 mM Hepes pH 7.5, 150 mM NaCl, 2 mM MgCl2, 1 mM EGTA, 1 mM DTT, 0.1% Triton X-100, 0.5 mg/ml BSA; 1.5 h at 4°C; western blot
Holding throughout (settings): both partners purified

The target of the assay “GST-Med17” is B3.
A further assay deals with T1, GST-Med15 (Drosophila melanogaster, UniProt Q9Y149 1-749).
T1 construct: Med15, Drosophila Mediator subunit; CDS amplified with the primers Med15 pGex6P-1 Fw/Rev (start to stop codon) and cloned into pGex6P-1; source: E. coli SixPack, purified on Glutathione Sepharose 4B, kept on the beads; not shown: GST, N-terminal, kept
T1 sequence (looked up): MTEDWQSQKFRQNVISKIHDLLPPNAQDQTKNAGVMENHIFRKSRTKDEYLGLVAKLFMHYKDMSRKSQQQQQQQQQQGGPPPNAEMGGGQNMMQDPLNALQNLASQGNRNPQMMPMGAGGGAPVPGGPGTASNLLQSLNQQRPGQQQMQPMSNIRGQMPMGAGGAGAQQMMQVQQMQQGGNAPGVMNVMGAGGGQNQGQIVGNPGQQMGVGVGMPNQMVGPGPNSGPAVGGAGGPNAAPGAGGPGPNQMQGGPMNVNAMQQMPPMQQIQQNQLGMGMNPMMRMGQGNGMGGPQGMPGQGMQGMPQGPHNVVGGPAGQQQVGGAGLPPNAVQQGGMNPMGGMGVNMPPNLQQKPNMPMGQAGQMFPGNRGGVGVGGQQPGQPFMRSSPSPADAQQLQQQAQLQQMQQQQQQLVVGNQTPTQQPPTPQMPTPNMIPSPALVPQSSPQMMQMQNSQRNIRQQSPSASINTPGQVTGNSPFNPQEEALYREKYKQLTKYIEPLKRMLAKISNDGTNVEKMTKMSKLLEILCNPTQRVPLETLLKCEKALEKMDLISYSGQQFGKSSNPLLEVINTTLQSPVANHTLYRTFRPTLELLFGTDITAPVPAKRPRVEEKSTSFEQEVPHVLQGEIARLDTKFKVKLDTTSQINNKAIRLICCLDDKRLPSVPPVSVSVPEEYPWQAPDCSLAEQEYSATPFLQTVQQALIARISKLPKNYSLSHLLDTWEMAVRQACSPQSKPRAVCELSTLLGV

The assay “6xHis-Hsf” has as its target B4.

B1: 6xHis-FERM-Moe (domain or fragment, Drosophila melanogaster, UniProt P46150 1-484, looked up)
chain: MSPKALNVRVTTMDAELEFAIQSTTTGKQLFDQVVKTIGLREVWFFGLQYTDSKGDSTWIKLYKKVMNQDVKKENPLQFRFRAKFYPEDVAEELIQDITLRLFYLQVKNAILTDEIYCPPETSVLLASYAVQARHGDHNKTTHTAGFLANDRLLPQRVIDQHKMSKDEWEQSIMTWWQEHRSMLREDAMMEYLKIAQDLEMYGVNYFEIRNKKGTDLWLGVDALGLNIYEQDDRLTPKIGFPWSEIRNISFSEKKFIIKPIDKKAPDFMFFAPRVRINKRILALCMGNHELYMRRRKPDTIDVQQMKAQAREEKNAKQQEREKLQLALAARERAEKKQQEYEDRLKQMQEDMERSQRDLLEAQDMIRRLEEQLKQLQAAKDELELRQKELQAMLQRLEEAKNMEAVEKLKLEEEIMAKQMEVQRIQDEVNAKDEETKRLQDEVEDARRKQVIAAEAAAALLAASTTPQHHHVAEDENENEEELT
notes: Drosophila Moesin, amino acids 1-484 (FERM-Moe); The methods say C-terminal 6xHis tagging in pDEST17, while the label 6xHis-FERM-Moe puts the tag first; as far as I recall pDEST17 adds an N-terminal His tag; also called 6xHis-tagged FERM-Moesin; source: E. coli, purified (HisPur Cobalt Resin or Ni-NTA beads); not shown: 6xHis, C-terminal, kept
As to B1, the binding result with GST-Med17 and with GST-Med15 was “binds” each time.

B2: GST-FERM-Moesin (domain or fragment, Drosophila melanogaster, UniProt P46150 1-484, looked up)
chain: MSPKALNVRVTTMDAELEFAIQSTTTGKQLFDQVVKTIGLREVWFFGLQYTDSKGDSTWIKLYKKVMNQDVKKENPLQFRFRAKFYPEDVAEELIQDITLRLFYLQVKNAILTDEIYCPPETSVLLASYAVQARHGDHNKTTHTAGFLANDRLLPQRVIDQHKMSKDEWEQSIMTWWQEHRSMLREDAMMEYLKIAQDLEMYGVNYFEIRNKKGTDLWLGVDALGLNIYEQDDRLTPKIGFPWSEIRNISFSEKKFIIKPIDKKAPDFMFFAPRVRINKRILALCMGNHELYMRRRKPDTIDVQQMKAQAREEKNAKQQEREKLQLALAARERAEKKQQEYEDRLKQMQEDMERSQRDLLEAQDMIRRLEEQLKQLQAAKDELELRQKELQAMLQRLEEAKNMEAVEKLKLEEEIMAKQMEVQRIQDEVNAKDEETKRLQDEVEDARRKQVIAAEAAAALLAASTTPQHHHVAEDENENEEELT
notes: pGex6P-1 vector; also called GST-Moesin; source: E. coli SixPack, purified on Glutathione Sepharose 4B, kept on the beads; not shown: GST, N-terminal, kept
In the case of B2, the binding result with 6xHis-Hsf is given as “binds”.

Consider B3, for which the binding result with 6xHis-Hsf is listed as “binds”.

As to B4, the binding result in the assay with GST-Med15 is “binds”.
